# Reference: patent US12630596B2, “Engineered lysin-human defensin protein” (priority 2018, dated 2026)
# Entries after “also recorded” stand apart in the source; their conditions may differ.
# Assays:
# [1] = test system: C. difficile R20291; assay: Optical drop assay, lytic activity on C. difficile R20291; format: cell-based, Clostridium difficile; conditions: strain R20291, 200 μg/ml
# Description: (§1) The lytic activity of proteins LHD and LCD against C. difficile strains was determined as previously described (Wang, Euler et al. 2015). Briefly, C. difficile strains were cultured in an anaerobic chamber to mid-log phase, and the bacterial pellets were harvested by centrifugation at 3000×g for 5 min. Pellets were washed twice and re-suspended in sterilized ddH2O, and resuspensions were not buffered. Prior to tests, bacterial optical density at 600 nm (OD600) was adjusted to approximately 0.8-1.0. Proteins LHD and LCD were added into the cell re-suspension with the final concentration of 200 μg/ml. The drop in OD600 at 37° C. was measured every 10 minutes for 60 min˜90 min. Bacterial re-suspension with sterilized water was also set as a control. Three repeats were included in each test.
# [2] = test system: C. difficile strains M120, VPI 10463, CD630, LC693, 1377; assay: Optical drop assay, lytic activity on other clinical epidemic C. difficile strains; format: cell-based, Clostridium difficile
# Description: C. difficile strains R20291 (ribotype 027), M120 (ribotype 078), VPI 10463 (ribotype 087; ATCC 43255), CD630 (ribotype 012), LC693 (ribotype unknown, ST201), and 1377 (ribotype 012) were used in this study. Strains M120 and VPI 10463 were provided by Dr. Joseph A. Sorg from Texas A&M University. Strains R20291 and CD630 were provided by Dr. Abraham L. Sonenshein from Tufts University. Strains 1377 and LC693 were epidemic clinical strains in China (Li, Liu et al. 2015, Peng, Liu et al. 2017).
# as §1
# [3] = test system: C. difficile R20291; assay: Minimum inhibitory concentration (MIC) on strain R20291; format: cell-based, Clostridium difficile; conditions: strain R20291, BHIS, 37° C. for 18 h
# Description: The minimum inhibitory concentrations (MICs) of LHD and LCD were determined using the protocol of Wiegand, et al. (Wiegand, Hilpert et al. 2008) with some modifications, as described previously (Gilmer, Schmitz et al. 2017). In brief, strain R20291 was grown in BHIS and adjusted to ˜5×10^5 cells/ml in BHIS, and distributed into the wells of a 96-well round bottom polystyrene microtiter plate. In the wells of each row, either sterile-filtered lysin or control vehicle (metronidazole, vancomycin and fidaxomicin) was added with a final concertation varied from 200 μg/ml to 0.19 μg/ml (2-fold dilution) (Wiegand, Hilpert et al. 2008). The plates were incubated at 37° C. for 18 h. The MIC was “the lowest or minimum concentration of lysin or control vehicle that prevented the formation of a cell pellet (a measure of growth) on the bottom of the wells” (Gilmer, Schmitz et al. 2017). The MICs were also confirmed by measuring the OD600 values using a Bio-Rad plate reader (Bio-Rad, Hercules, CA).
# [4] = molecular target: Clostridium difficile toxin B (TcdB) (Clostridioides difficile, UniProt P18177); assay: Inhibition of TcdB cytotoxicity in CT26 cells (cell rounding, non-glucosylated Rac1 Western blot); format: cell-based; conditions: pre-treatment 750 ng/ml 1 hr, TcdB 15 ng/ml 5 hrs
# Chain of Clostridium difficile toxin B (TcdB) (P18177 whole entry): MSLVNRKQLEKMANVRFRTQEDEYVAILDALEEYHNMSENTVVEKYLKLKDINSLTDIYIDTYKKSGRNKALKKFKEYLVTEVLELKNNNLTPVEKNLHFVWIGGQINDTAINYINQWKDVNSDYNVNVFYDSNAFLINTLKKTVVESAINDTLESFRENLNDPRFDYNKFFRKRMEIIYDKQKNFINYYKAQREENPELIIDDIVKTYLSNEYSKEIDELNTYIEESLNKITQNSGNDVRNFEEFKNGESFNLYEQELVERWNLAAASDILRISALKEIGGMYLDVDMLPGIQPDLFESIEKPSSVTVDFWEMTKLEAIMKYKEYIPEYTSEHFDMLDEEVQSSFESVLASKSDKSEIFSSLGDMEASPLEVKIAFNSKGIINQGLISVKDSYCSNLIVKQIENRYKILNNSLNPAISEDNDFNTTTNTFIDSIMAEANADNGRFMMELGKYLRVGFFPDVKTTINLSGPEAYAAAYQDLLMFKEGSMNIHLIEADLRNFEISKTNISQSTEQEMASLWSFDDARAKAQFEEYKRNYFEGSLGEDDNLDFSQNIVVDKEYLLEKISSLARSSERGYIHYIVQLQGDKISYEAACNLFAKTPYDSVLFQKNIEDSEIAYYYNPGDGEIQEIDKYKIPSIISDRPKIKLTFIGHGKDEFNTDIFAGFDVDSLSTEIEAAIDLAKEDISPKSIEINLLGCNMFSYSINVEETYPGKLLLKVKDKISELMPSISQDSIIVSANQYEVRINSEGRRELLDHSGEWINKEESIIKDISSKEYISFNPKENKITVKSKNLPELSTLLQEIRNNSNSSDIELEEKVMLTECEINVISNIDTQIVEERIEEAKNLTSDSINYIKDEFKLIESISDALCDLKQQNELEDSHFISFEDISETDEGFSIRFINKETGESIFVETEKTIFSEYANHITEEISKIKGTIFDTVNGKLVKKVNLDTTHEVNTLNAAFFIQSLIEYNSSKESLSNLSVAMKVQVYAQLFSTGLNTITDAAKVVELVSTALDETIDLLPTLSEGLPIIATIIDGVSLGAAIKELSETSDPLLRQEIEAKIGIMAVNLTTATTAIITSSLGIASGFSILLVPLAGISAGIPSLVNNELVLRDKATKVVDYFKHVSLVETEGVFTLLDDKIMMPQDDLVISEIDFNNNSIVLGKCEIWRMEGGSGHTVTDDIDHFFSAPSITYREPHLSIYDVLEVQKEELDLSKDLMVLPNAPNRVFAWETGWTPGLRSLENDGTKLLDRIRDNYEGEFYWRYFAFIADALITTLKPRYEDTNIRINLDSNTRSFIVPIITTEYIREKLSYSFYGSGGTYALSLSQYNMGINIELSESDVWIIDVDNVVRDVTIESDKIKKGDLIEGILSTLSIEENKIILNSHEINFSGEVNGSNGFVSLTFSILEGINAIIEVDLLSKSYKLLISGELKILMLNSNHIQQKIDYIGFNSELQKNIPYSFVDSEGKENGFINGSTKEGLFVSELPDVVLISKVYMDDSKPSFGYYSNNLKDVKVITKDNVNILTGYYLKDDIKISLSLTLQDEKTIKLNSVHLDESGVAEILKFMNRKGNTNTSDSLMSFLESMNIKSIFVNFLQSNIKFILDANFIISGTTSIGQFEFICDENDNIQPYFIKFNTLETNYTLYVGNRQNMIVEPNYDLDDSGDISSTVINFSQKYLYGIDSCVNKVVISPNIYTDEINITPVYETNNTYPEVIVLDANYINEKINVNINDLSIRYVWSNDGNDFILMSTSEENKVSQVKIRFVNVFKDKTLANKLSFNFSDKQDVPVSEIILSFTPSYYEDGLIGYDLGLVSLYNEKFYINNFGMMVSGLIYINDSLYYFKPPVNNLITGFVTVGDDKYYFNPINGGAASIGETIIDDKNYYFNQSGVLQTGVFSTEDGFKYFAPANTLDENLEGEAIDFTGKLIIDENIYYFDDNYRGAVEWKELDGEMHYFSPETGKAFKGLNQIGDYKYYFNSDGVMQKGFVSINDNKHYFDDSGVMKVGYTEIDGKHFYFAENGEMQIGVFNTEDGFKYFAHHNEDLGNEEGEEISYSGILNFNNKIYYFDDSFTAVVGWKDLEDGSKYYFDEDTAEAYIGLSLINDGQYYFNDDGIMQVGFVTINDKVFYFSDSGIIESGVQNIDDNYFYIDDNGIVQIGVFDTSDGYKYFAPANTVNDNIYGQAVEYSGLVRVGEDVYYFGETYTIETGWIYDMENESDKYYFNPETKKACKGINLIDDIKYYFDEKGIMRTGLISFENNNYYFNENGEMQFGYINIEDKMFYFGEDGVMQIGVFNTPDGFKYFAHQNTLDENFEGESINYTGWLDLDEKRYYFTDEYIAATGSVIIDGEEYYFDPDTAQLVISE
# Description: (FIG. 5A) LHD inhibits TcdB-induced cell rounding. CT26 cells in 12-well plates were exposed to HD or LHD at 750 ng/ml (50 times of TcdB concentration) or nothing for 1 hour, followed by exposure to TcdB at 15 ng/ml for 5 hours. (FIG. 5B) Western-blot analysis of non-glucosylated Rac1 in CT26 cells treated with TcdB in the presence or absence of LHD or HD. TcdB glucosylates Rac1 in cells, serving as a readout for toxin cytotoxicity. Quantitation of Rac1 levels in Western-blot was shown in low panel (*p<0.05). (FIG. 5C) CT26 cells were lysed, and the cytosolic fraction was exposed to TcdB (15 ng/ml) with or without HD at 750 ng/ml (50 times of TcdB concentration) or LHD at 1500 ng/ml (same molecular concentration as HD) or nothing for 1 h followed by Western Blot analysis using a monoclonal antibody that only recognizes non-glucosylated Rac1. β-actin was used as an equal loading control. Quantitation of Rac1 levels in Western-blot was shown in low panel (****p<0.0001).
# It was reported that the human defensin protein HD5 (HD) could inhibit TcdB (Giesemann, Guttenberg et al. 2008). Therefore, we evaluated the inhibitory effects of LHD and HD on TcdB. Briefly, CT26 cells in 12-well plates were exposed to LHD, synthesized HD or PBS at 750 ng/ml (50 times of TcdB concentration) for 1 hr, followed by exposure to TcdB at 15 ng/ml for 5 hrs. Total cell lysates were subjected to 12% SDS-PAGE separation, and transferred onto a Nylon membrane. Following blocking for 1 hr at room temperature with 5% skim milk, the membrane was incubated overnight at 4° C. with RAC1 antibody (1:1000, Cat: 610650, BD Biosciences) and β-actin antibody (1:10000, Cat: A5441, Sigma-Aldrich).
molecule,measurement,setting,value
"LHD: Fusion of phage phiC2 lysin catalytic domain (LCD, 179aa), (GGGGS)3 linker and human alpha-defensin 5; SEQ ID NO:1 (protein) MKICITVGHSILKSGACTSADGVVNEYQYNKSLAPVLADTFRKEGHKVDVIICPEKQFKTKNEEKSYKIPRVNSGGYDLLIELHLNASNGQGKGSEVLYYSNKGLEYATRICDKLGTVFKNRGAKLDKRLYILNSSKPTAVLIESFFCDNKEDYDKAKKLGHEGIAKLIVEGVLNKNINGGGGSGGGGSGGGGSATCYCRTGRCATRESLSGVCEISGRLYRLCCR",lytic activity (drop in OD600),[1],potent lytic activities
same,lytic activity (drop in OD600),"[2]; different types of clinical epidemic strains, 200 μg/ml",potent lytic activities
same,lytic activity compared with LCD,"[2]; strain M120, p<0.05",more potent than LCD
same,lytic activity compared with LCD,"[2]; strains VP110463, CD630, LC693 and 1377",slightly more potent
same,MIC,[3],0.78 µg/mL
same,cell rounding caused by TcdB,[4],decreased cell rounding; also recorded: comparable to human defensin peptide HD5
same,non-glucosylated Rac1 in cells (readout of cytotoxicity of TcdB),[4],significant increase
